Measured values taken from patent US20240060126.

Assays:
[1] = biological target: MspA-((Del-L74/G75/D118/L119)D56F/E59R/L88N/D90N/D91N/Q126R/D134R/E139K)8
[2] = biological target: MspA-((Del-L74/G75/D118/L119)G1A/D56N/E59F/L88N/D90N/D91N/Q126R/D134R/E139K)8

B1: T4 Dda-E94C/C109A/C136A/K199L/A360C (protein)
chain: MTFDDLTEGQKNAFNIVMKAIKEKKHHVTINGPAGTGKTTLTKFIIEALISTGETGIILAAPTHAAKKILSKLSGKEASTIHSILKINPVTYECNVLFEQKEVPDLAKARVLICDEVSMYDRKLFKILLSTIPPWATIIGIGDNKQIRPVDPGENTAYISPFFTHKDFYQCELTEVKRSNAPIIDVATDVRNGKWIYDLVVDGHGVRGFTGDTALRDFMVNYFSIVKSLDDLFENRVMAFTNKSVDKLNSIIRKKIFETDKDFIVGEIIVMQEPLFKTYKIDGKPVSEIIFNNGQLVRIIEAEYTSTFVKARGVPGEYLIRHWDLTVETYGDDEYYREKIKIISSDEELYKFNLFLGKTCETYKNWNKGGKAPWSDFWDAKSQFSKVKALPASTFHKAQGMSVDRAFIYTPCIHYADVELAQQLLYVGVTRGRYDVFYV
- slips forward per kilobase [1]: less than 5 slips forward per kilobase
- % bases missed in construct X [2]: the lowest % bases missed in construct X
- slips forward per kilobase [2]: less than 5 slips forward per kilobase
